Data: patent US20140341881A1

How the values were obtained:
[1] = target: human neutrophil elastase (HNE) (human) (UniProt P08246); assay: cell-based or functional assay
[2] = target: human plasma kallikrein (PK) (human) (UniProt P03952); assay: cell-based or functional assay
human plasma kallikrein (PK) (human), sequence (P03952 20-638 limits assumed): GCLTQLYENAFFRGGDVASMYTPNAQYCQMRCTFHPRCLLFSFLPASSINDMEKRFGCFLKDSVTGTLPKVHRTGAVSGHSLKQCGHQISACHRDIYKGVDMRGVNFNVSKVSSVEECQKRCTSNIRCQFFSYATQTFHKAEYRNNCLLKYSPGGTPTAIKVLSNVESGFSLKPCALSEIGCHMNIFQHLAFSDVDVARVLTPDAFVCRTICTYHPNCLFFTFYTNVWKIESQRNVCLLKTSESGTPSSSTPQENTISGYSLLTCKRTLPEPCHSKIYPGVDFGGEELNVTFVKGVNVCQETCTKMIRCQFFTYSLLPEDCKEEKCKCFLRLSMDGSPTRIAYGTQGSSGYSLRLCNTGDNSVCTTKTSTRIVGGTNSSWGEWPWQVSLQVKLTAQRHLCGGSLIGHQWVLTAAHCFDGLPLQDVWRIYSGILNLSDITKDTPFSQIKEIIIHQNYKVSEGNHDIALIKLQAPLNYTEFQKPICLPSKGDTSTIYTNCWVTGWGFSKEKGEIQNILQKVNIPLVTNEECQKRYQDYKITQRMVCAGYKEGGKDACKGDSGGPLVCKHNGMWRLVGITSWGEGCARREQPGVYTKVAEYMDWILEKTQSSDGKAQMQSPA

human neutrophil elastase (HNE) (human), sequence (P08246 30-247 limits assumed): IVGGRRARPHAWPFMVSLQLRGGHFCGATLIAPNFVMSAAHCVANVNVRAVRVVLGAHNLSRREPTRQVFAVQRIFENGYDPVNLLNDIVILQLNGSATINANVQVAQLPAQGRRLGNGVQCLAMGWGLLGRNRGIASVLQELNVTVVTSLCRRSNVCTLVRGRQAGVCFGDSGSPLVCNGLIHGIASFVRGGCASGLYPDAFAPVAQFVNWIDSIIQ

- % Inhibition [1]: 26%
- INHIBITION % [1]: 15%
- Percentage inhibition [1]: 16%
- % Inhibition [2]: 46%
- INHIBITION % [2]: 0%
- Percentage inhibition [2]: 46%
Substance: rACTWT (recombinant wild type alpha-1-antichymotrypsin) (from UniProt P01011 24-423)
